Measurements: article PMC6824560, “Insight into the relationship between aryl-hydrocarbon receptor and β-catenin in human colon cancer cells” (PLoS ONE, 2019)

Biological target: T1, human Arnt fused to Gal4 DNA-binding domain in pGBKT7 (human, UniProt P27540 1-789)
T1 construct: Arnt, human cDNA; This fusion alone induces the reporter; also called pGBK-Arnt; source: yeast two-hybrid fusion, yeast strain Y187
Experiment: two-hybrid; yeast two-hybrid in strain Y187, pGADT7 and pGBKT7 fusions, 1 μM 3MC or 0.1% DMSO for 12 h at 30°C, β-galactosidase read-out (o-nitrophenol-β-D-galactopyranoside); DDB1 or CUL4B co-expressed from pESC in some samples
Conditions: partners not purified

T1 sequence (P27540 whole entry, the tested form may be a part): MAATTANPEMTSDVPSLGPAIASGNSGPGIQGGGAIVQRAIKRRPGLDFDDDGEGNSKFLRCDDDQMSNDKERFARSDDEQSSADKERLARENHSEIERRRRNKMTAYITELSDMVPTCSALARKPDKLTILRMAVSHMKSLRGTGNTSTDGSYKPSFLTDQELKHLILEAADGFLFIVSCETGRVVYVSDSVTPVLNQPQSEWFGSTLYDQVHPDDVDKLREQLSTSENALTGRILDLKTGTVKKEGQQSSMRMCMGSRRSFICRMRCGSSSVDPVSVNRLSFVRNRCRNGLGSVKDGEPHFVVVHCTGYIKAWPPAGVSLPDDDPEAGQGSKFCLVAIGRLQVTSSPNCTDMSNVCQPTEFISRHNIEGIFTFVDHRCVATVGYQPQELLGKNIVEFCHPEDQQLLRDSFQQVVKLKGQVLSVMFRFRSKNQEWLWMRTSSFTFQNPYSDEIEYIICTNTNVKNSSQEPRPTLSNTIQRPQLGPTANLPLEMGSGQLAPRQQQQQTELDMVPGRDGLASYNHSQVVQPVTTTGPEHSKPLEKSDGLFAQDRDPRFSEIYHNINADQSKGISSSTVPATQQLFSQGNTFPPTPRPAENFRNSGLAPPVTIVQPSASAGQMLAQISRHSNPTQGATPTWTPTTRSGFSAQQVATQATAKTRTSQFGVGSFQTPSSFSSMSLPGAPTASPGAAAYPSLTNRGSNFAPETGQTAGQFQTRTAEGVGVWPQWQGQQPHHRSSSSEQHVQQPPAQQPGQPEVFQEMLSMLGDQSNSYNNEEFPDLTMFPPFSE

- fold increase of two-hybrid reporter activity over pGBK-Arnt alone: ~3 fold
B1: human AhR fused to Gal4 activating domain in pGADT7 (natural protein, UniProt P35869 1-848, looked up)
chain: MNSSSANITYASRKRRKPVQKTVKPIPAEGIKSNPSKRHRDRLNTELDRLASLLPFPQDVINKLDKLSVLRLSVSYLRAKSFFDVALKSSPTERNGGQDNCRAANFREGLNLQEGEFLLQALNGFVLVVTTDALVFYASSTIQDYLGFQQSDVIHQSVYELIHTEDRAEFQRQLHWALNPSQCTESGQGIEEATGLPQTVVCYNPDQIPPENSPLMERCFICRLRCLLDNSSGFLAMNFQGKLKYLHGQKKKGKDGSILPPQLALFAIATPLQPPSILEIRTKNFIFRTKHKLDFTPIGCDAKGRIVLGYTEAELCTRGSGYQFIHAADMLYCAESHIRMIKTGESGMIVFRLLTKNNRWTWVQSNARLLYKNGRPDYIIVTQRPLTDEEGTEHLRKRNTKLPFMFTTGEAVLYEATNPFPAIMDPLPLRTKNGTSGKDSATTSTLSKDSLNPSSLLAAMMQQDESIYLYPASSTSSTAPFENNFFNESMNECRNWQDNTAPMGNDTILKHEQIDQPQDVNSFAGGHPGLFQDSKNSDLYSIMKNLGIDFEDIRHMQNEKFFRNDFSGEVDFRDIDLTDEILTYVQDSLSKSPFIPSDYQQQQSLALNSSCMVQEHLHLEQQQQHHQKQVVVEPQQQLCQKMKHMQVNGMFENWNSNQFVPFNCPQQDPQQYNVFTDLHGISQEFPYKSEMDSMPYTQNFISCNQPVLPQHSKCTELDYPMGSFEPSPYPTTSSLEDFVTCLQLPENQKHGLNPQSAIITPQTCYAGAVSMYQCQPEPQHTHVGQMQYNPVLPGQQAFLNKFQNGVLNETYPAELNNINNTQTTTHLQPLHHPSEARPFPDLTSSGFL
notes: aryl-hydrocarbon receptor (AhR), human cDNA; also called pGAD-AhR; aryl-hydrocarbon receptor; source: yeast two-hybrid fusion, yeast strain Y187
